Measurements from publication PMC2805030 (2010).

Target: T1, RXRα LBD 226-462 (Homo sapiens, UniProt P19793)
T1 chain: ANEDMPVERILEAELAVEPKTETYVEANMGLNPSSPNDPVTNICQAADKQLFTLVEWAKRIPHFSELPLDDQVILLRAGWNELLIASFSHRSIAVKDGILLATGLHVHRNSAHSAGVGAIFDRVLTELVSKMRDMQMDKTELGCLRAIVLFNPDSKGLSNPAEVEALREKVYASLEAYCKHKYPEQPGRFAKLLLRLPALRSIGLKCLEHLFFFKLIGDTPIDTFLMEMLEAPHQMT
Experiment: sedimentation equilibrium analytical ultracentrifugation

B1: RXRα LBD 226-462 (protein)
chain: ANEDMPVERILEAELAVEPKTETYVEANMGLNPSSPNDPVTNICQAADKQLFTLVEWAKRIPHFSELPLDDQVILLRAGWNELLIASFSHRSIAVKDGILLATGLHVHRNSAHSAGVGAIFDRVLTELVSKMRDMQMDKTELGCLRAIVLFNPDSKGLSNPAEVEALREKVYASLEAYCKHKYPEQPGRFAKLLLRLPALRSIGLKCLEHLFFFKLIGDTPIDTFLMEMLEAPHQMT
modifications: fluorescein-labeled
Kd: 832 nM
